Assay results taken from patent publication US20240279318A1 (NANJING LEGEND BIOTECH, published 2024).
Substitutions are numbered along the chain they refer to.

Legend:
[1] = target: T1, AFP158/HLA-A*02:01 complex (human); experiment: SPR; vs AS170036 VL1VH1;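 further: crude scFv captured on sensor chip, peptide–HLA complex flowed over at several concentrations, KD estimated from association and dissociation kinetic rates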
T1 construct: biotinylated on the BSP by BirA for ELISA and panning; also called biotinylated AFP158/HLA-A*02:01 complex; Bio-AFP158

[2] = target: T1, AFP158/HLA-A*02:01 complex; experiment: SPR, crude scFv captured;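 further: Peptide–MHC complex flowed at several concentrations over sensorchip-captured scFv, Kd derived from on- and off-rates obtained from the association and dissociation curves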
[3] = target: T2, AFP158/HLA-A*02:01 complex (human); experiment: SPR, scFv captured, pMHC in flow;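 further: complex injected at several concentrations over crude scFv, association then running-buffer dissociation, KD estimated from kinetic on- and off-rate constants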
T2 construct: flowed over the chip in SPR; also called AFP158 pro

[4] = target: T2, AFP158/HLA-A*02:01 complex; experiment: SPR, KD ratio to AS170036 VL1VH1;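 further: crude scFv captured on a sensor chip, peptide–HLA complex passed over at several concentrations, association then buffer dissociation, KD derived from on- and off-rates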

B1: AS170036 VL1VH1 HP58F (scFv)
scFv: QSALTQPRSVSGSPGQSVTISCAGTSSDVGSENYVSWYQQHPGKAPKLMIYQVNKRASGVPDRFSGSKSGNTASLTISGLQAEDEADYYCASYRSSDHNIVFGGGTKLTVLGGGGSGGGGSGGGGSEVQLVESGGGLVQPGGSLRLSCAASGFTFSSYAMSWVRQAPGKGLEWVSTINSGTGSFYYADSVKGRFTISRDNSKNTLYLQMNSLRAEDTAVYYCAKNFFDGSWFLGPPAMDYWGQGTLVTVSSHHHHHH
In the case of B1, the Affinity increase [1] is reported as 0.2 fold and the Kd [2] is reported as 1700 nM.

B2: AS170036 VL1VH1 HP110I (scFv)
scFv: B1 scFv with F184P, P236I
For B2, the Affinity increase [1] was 0.2 fold and the Kd [2] was 1500 nM.

B3: AS170036 VL1VH1 HP110A (scFv)
scFv: B1 scFv with F184P, P236A
Work on B3 yielded an Affinity increase [1] of 1.3 fold and a Kd [2] of 210 nM.

B4: LD97Y (scFv)
scFv: B1 scFv with D97Y, F184P
notes: AS170036 VL1VH1 scFv mutein
Binder B4 has a Kd [3] of 570 nM and an Affinity increase [4] of 0.4 fold.

B5: AS170036 VL1VH1 HP58H (scFv)
scFv: B1 scFv with F184H
Work on B5 yielded an Affinity increase [1] of 0.3 fold and a Kd [2] of 1000 nM.

B6: LD97E (scFv)
scFv: B1 scFv with D97E, F184P
notes: AS170036 VL1VH1 scFv mutein
For B6, the Kd [3] was 690 nM and the Affinity increase [4] was 0.4 fold.

B7: AS170036 VL1VH1 HS53T (scFv)
scFv: B1 scFv with S179T, F184P
B7 gave an Affinity increase [1] of 0.4 fold and a Kd [2] of 650 nM.

B8: AS170036 VL1VH1 HP109N (scFv)
scFv: B1 scFv with F184P, P235N
B8 gave an Affinity increase [1] of 0.1 fold and a Kd [2] of 4500 nM.

B9: AS170036 VL1VH1 HS57D (scFv)
scFv: B1 scFv with S183D, F184P
With B9 the Affinity increase [1] was 1.2 fold and the Kd [2] was 200 nM.

B10: AS170036 VL1VH1 HP58G (scFv)
scFv: B1 scFv with F184G
In the case of B10, the Affinity increase [1] is reported as 0.9 fold and the Kd [2] is reported as 320 nM.

B11: AS170036 VL1VH1 HP110L (scFv)
scFv: B1 scFv with F184P, P236L
For B11, the Affinity increase [1] was 0.2 fold and the Kd [2] was 1500 nM.

B12: AS170036 VL1VH1 HS57T (scFv)
scFv: B1 scFv with S183T, F184P
Work on B12 yielded an Affinity increase [1] of 1.1 fold and a Kd [2] of 220 nM.

B13: AS170036 VL1VH1 HP110E (scFv)
scFv: B1 scFv with F184P, P236E
B13 was tested, and the Affinity increase [1] was 1.8 fold and the Kd [2] was 150 nM.

B14: AS170036 VL1VH1 HP110Q (scFv)
scFv: B1 scFv with F184P, P236Q
B14 was tested, and the Affinity increase [1] was 0.9 fold and the Kd [2] was 300 nM.

B15: LD97M (scFv)
scFv: B1 scFv with D97M, F184P
notes: AS170036 VL1VH1 scFv mutein
B15 gave a Kd [3] of 590 nM and an Affinity increase [4] of 0.4 fold.

B16: AS170036 VL1VH1 HP58S (scFv)
scFv: B1 scFv with F184S
In the case of B16, the Affinity increase [1] is reported as 0.3 fold and the Kd [2] is reported as 780 nM.

B17: AS170036 VL1VH1 HP110S (scFv)
scFv: B1 scFv with F184P, P236S
Work on B17 yielded an Affinity increase [1] of 0.8 fold and a Kd [2] of 300 nM.

B18: AS170036 VL1VH1 HS57N (scFv)
scFv: B1 scFv with S183N, F184P
Binder B18 has an Affinity increase [1] of 1.5 fold and a Kd [2] of 170 nM.

B19: AS170036 VL1VH1 HP110G (scFv)
scFv: B1 scFv with F184P, P236G
With B19 the Affinity increase [1] was 1 fold and the Kd [2] was 260 nM.

B20: AS170036 VL1VH1 HP110D (scFv)
scFv: B1 scFv with F184P, P236D
In the case of B20, the Affinity increase [1] is reported as 0.5 fold and the Kd [2] is reported as 540 nM.

B21: AS170036 VL1VH1 HP58W (scFv)
scFv: B1 scFv with F184W
B21 showed an Affinity increase [1] of 0.1 fold and a Kd [2] of 2700 nM.

B22: AS170036 VL1VH1 HP58M (scFv)
scFv: B1 scFv with F184M
Binder B22 has an Affinity increase [1] of 0.2 fold and a Kd [2] of 1500 nM.

B23: LE32H (scFv)
scFv: B1 scFv with E32H, F184P
notes: AS170036 VL1VH1 scFv mutein
Work on B23 yielded a Kd [3] of 830 nM and an Affinity increase [4] of 0.3 fold.

B24: AS170036 VL1VH1 HS57F (scFv)
scFv: B1 scFv with S183F, F184P
In the case of B24, the Affinity increase [1] is reported as 1.4 fold and the Kd [2] is reported as 180 nM.

B25: AS170036 VL1VH1 HP109T (scFv)
scFv: B1 scFv with F184P, P235T
B25 was tested, and the Affinity increase [1] was 0.1 fold and the Kd [2] was 5400 nM.
